Measurements as given in EP4736885A1 (CSPC Megalith Biopharmaceutical Co., Ltd., dated 2025).
Numbering of substitutions follows the chain as printed.

T1: B7H3 on B7H3-positive human melanoma A375 cells (human, UniProt Q5ZPR3 29-534)
T1 construct: whole, on cells; Endogenous B7H3 on A375 cells; also called B7H3-positive A375 cells
T1 sequence (looked up): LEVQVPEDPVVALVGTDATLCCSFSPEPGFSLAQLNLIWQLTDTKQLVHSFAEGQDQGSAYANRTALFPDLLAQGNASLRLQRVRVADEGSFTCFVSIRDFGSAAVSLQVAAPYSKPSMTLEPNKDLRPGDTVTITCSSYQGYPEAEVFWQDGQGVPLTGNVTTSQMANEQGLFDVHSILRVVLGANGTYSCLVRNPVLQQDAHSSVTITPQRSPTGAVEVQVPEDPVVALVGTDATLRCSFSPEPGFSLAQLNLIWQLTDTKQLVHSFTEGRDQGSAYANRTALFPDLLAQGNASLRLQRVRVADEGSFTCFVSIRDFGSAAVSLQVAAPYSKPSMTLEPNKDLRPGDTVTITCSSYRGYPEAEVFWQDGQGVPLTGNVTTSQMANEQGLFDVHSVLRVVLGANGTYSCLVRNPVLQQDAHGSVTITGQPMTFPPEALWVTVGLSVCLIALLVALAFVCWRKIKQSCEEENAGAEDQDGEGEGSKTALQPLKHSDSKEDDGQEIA

T2: His-tagged human B7H3 protein (purchased from Beijing ACROBiosystems Co., Ltd.) (human, UniProt Q5ZPR3-2 29-245, limits assumed)
T2 construct: not shown: His tag
T2 sequence (looked up): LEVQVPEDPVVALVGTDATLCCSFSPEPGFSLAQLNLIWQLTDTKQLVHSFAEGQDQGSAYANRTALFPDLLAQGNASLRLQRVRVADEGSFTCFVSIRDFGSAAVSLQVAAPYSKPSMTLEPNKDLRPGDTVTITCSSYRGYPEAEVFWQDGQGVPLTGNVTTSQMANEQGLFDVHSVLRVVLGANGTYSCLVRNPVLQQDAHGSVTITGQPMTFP

B1: antibody-drug conjugate 43B-045-6 (antibody, human IgG1, kappa, L234A L235A)
heavy: QVQLVQSGAEVKKPGASVKVSCKASGYTFTDYFMNWVRQAPGQGLEWMGDVNPKTGSPSYNQKFKGRVTMTRDTSTSTVYMELSSLRSEDTAVYYCARRYGFLYSMDYWGQGTSVTVSSASTKGPSVFPLAPSSKSTSGGTAALGCLVKDYFPEPVTVSWNSGALTSGVHTFPAVLQSSGLYSLSSVVTVPSSSLGTQTYICNVNHKPSNTKVDKRVEPKSCDKTHTSPPCPAPEAAGGPSVFLFPPKPKDTLMISRTPEVTCVVVDVSHEDPEVKFNWYVDGVEVHNAKTKPREEQYNSTYRVVSVLTVLHQDWLNGKEYKCKVSNKALAASIEKTISKAKGQPREPQVYTLPPSREEMTKNQVSLTCLVKGFYPSDIAVEWESNGQPENNYKTTPPVLDSDGSFFLYSKLTVDKSRWQQGNVFSCSVMHEALHNHYTQKSLSLSPGK
light: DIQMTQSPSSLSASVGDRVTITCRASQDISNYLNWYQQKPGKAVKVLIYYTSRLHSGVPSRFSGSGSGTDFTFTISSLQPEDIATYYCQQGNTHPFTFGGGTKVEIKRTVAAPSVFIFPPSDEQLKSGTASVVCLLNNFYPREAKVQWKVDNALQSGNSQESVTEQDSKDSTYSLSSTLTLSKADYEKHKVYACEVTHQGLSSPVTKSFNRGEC
modifications: linker-drug compound 045 (exatecan) on thiols of reduced interchain cysteines; DAR of the whole conjugate 5.7
B2: anti-B7H3 antibody 43A (antibody, human IgG1, kappa, L234A L235A)
heavy: B1 heavy with S228C
light: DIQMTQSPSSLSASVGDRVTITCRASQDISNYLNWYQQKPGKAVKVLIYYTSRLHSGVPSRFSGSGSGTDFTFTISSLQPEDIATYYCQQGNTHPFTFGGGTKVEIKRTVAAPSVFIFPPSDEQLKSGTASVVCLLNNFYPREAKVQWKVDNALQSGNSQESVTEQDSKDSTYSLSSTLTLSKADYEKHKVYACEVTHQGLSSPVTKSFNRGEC
notes: 2 identical heavy chains and 2 identical light chains
B3: anti-B7H3 antibody 43B (antibody, human IgG1, kappa, L234A L235A)
heavy: B1 heavy
light: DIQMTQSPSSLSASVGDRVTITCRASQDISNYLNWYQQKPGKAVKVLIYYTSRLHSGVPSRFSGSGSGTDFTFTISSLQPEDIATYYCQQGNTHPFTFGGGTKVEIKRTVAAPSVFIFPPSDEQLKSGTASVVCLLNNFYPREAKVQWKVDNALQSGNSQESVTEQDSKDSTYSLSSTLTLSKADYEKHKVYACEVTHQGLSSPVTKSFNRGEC
notes: as for B2
B4: M30 antibody (CN103687945B) (antibody, human IgG1, kappa, V domains shown)
VH: QVQLVQSGAEVKKPGSSVKVSCKASGYTFTNYVMHWVRQAPGQGLEWMGYINPYNDDVKYNEKFKGRVTITADESTSTAYMELSSLRSEDTAVYYCARWGYYGSPLYYFDYWGQGTLVTVSS
VL: EIVLTQSPATLSLSPGERATLSCRASSRLIYMHWYQQKPGQAPRPLIYATSNLASGIPARFSGSGSGTDFTLTISSLEPEDFAVYYCQQWNSNPPTFGQGTKVEIKR
notes: also called M30-H1/M30-L4
B5: antibody-drug conjugate 43A-DXd (antibody, human IgG1, kappa, L234A L235A)
heavy: B1 heavy with S228C
light: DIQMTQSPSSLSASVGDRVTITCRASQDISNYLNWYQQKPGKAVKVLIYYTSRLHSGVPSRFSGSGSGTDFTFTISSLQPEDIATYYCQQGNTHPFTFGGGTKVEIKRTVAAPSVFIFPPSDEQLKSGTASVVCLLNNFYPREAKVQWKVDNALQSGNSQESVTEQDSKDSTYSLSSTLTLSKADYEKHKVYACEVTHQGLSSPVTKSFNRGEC
modifications: deruxtecan linker-drug on thiols of reduced interchain cysteines; DAR of the whole conjugate 7.4
B6: antibody-drug conjugate 43A-042 (antibody, human IgG1, kappa, L234A L235A)
heavy: B1 heavy with S228C
light: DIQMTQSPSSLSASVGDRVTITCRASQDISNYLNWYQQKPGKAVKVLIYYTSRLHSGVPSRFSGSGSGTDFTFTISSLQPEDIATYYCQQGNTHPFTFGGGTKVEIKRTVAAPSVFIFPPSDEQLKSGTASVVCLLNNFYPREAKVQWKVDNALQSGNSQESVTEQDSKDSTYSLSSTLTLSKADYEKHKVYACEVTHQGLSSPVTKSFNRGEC
modifications: linker-drug compound A_10 (exatecan) on thiols of reduced interchain cysteines; DAR of the whole conjugate 7.6
B7: antibody-drug conjugate 43A-043 (antibody, human IgG1, kappa, L234A L235A)
heavy: B1 heavy with S228C
light: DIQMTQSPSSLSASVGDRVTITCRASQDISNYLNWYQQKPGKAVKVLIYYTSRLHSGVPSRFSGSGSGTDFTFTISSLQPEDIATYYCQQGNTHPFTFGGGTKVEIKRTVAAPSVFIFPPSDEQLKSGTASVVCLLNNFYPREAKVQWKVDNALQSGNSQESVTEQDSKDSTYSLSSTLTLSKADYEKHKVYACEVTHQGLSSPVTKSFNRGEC
modifications: linker-drug compound B_3 (exatecan) on thiols of reduced interchain cysteines; DAR of the whole conjugate 7.8
B8: antibody-drug conjugate 43B-043 (antibody, human IgG1, kappa, L234A L235A)
heavy: B1 heavy
light: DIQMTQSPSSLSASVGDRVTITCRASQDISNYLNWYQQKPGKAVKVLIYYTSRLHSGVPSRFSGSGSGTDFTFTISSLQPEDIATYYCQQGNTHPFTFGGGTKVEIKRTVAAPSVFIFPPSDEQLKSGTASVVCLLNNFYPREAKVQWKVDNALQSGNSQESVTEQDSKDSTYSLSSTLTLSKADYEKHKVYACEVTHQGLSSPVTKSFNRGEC
modifications: linker-drug compound B_3 (exatecan) on thiols of reduced interchain cysteines; DAR of the whole conjugate 5.9
B9: antibody-drug conjugate 43B-042 (antibody, human IgG1, kappa, L234A L235A)
heavy: B1 heavy
light: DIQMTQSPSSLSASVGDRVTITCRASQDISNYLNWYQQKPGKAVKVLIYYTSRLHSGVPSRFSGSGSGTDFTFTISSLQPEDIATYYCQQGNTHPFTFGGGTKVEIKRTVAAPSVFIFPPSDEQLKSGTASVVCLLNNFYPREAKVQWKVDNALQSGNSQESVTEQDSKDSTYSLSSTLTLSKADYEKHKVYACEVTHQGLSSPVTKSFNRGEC
modifications: linker-drug compound A_10 (exatecan) on thiols of reduced interchain cysteines; DAR of the whole conjugate 5.9

Biological target: T1, B7H3 on B7H3-positive human melanoma …
Assay: flow cytometry on B7H3-positive A375 cells, MFI

Row | Binder | EC50 [ng/mL]
1 | B1 | 37.8
2 | B2 | 54.5
3 | B3 | 61.2
4 | B4 | 125

Biological target: T2, His-tagged human B7H3 protein …
Assay: ELISA, His-tagged human B7H3 coated on plate, anti-human IgG-HRP

Row | Binder | EC50 [ng/mL]
5 | B2 | 1.02
6 | B5 | 1.19
7 | B6 | 1.17
8 | B7 | 1.09
9 | B8 | 1.05
10 | B3 | 1.05
11 | B9 | 1.16
